One may read the Kd as a measure of binding affinity in units of concentration. Low readings indicate higher affinity, high ones lower affinity.

Assay [1] addresses DNA primase PriSL (PriS-PriL heterodimer) from P. abyssi, in solution (Pyrococcus abyssi) (UniProt Q9V292).
Assay [2] shares this target. This is another data set of the same source.
Assay [3] addresses Replication Protein A (RPA) heterotrimer from Pyrococcus abyssi, wild type (Pyrococcus abyssi). In words: BLI; RPA or RPA^ΔWH nucleoprotein filaments on a 3'-TEG-biotin 50-nt ssDNA held on streptavidin sensors; PriSL (1.56-100 nM) or PolD (15.62-1000 nM) in solution; steady-state analysis; 25 °C, buffer E with 0.2 mg/ml BSA. For orientation: Biolayer interferometry detects binding as a change in optical thickness at a sensor tip.

Chain of DNA primase PriSL (PriS-PriL heterodimer) from P. abyssi, in solution (Pyrococcus abyssi) (Q9V292 whole entry, chain 1 of 2): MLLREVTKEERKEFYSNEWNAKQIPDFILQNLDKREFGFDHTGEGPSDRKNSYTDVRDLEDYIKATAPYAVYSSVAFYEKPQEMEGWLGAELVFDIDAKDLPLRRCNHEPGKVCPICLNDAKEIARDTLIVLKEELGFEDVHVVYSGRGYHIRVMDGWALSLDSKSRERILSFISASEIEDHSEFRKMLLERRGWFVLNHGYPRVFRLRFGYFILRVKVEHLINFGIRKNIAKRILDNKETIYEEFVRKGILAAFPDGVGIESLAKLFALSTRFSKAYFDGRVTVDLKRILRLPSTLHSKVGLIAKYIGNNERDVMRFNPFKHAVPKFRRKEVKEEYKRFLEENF
Chain of DNA primase PriSL (PriS-PriL heterodimer) from P. abyssi, in solution (Pyrococcus abyssi) (Q9V291 whole entry, chain 2 of 2, further chain): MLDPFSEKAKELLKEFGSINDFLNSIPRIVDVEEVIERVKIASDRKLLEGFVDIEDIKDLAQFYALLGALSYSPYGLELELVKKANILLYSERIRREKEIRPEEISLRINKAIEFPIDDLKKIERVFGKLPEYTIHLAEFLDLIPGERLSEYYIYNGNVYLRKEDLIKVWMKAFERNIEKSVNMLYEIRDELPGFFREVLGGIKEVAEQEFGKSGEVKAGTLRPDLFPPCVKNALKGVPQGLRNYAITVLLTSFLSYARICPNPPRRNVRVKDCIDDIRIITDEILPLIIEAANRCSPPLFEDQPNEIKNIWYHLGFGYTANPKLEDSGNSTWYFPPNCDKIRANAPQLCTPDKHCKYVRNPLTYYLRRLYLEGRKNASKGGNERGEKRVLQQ

With “Replication Protein A (RPA) heterotrimer from Pyrococcus abyssi, wild type (complex)”, the PriSL primer extension, long products (≥70 nt), with RPA from 0.05 to 0.8 µM in assay [1] amounted to 5 fold. Regarding “RPA^ala-linker, RPA with all 12 glutamic acid residues of the Rpa2 linker substituted with alanine (complex)”, the PriSL primer extension, reduction in long extension products against wild-type RPA, over the RPA concentrations tested in assay [2] came out at 45%. “Replicative DNA polymerase PolD (DP1-DP2 heterodimer) from P. abyssi, in solution (complex)” yielded a Kd in assay [3] of 136 nM.

Source of the values: publication PMC11686378.
